From US20220042033A1, “COMPOSITION AND METHOD FOR CONFERRING AND/OR ENHANCING TOLERANCE AGAINST HERBICIDES BY USING VARIANTS OF PPO” (FarmHannong Co., Ltd., priority 2017, published 2022)

Test system: MxPPO
Assay: PPO enzyme activity of purified MBP-fused MxPPO wild type and variants
Assay type: biochemical, Myxococcus xanthus
Conditions: PPO enzyme activity of purified MxPPO protein, relative to wild type
Experimental: Thus, PPO proteins of wild type and variants were expressed as fused to MBP and were used for experiments.
The following process for purification of PPO protein was performed in a 4° C. cold room. […] The column was washed with 3 column volumes of buffer and the presence of protein in the washing solution was examined. When the protein was no longer detected, the washing procedure was terminated. Then, the MBP-PPO protein was eluted with approximately 2 column volumes of buffer containing 20 mM maltose. The protein concentration of each eluent was determined and the elution was stopped when the protein was no longer detected. Ten microliter of each fraction was investigated for protein quantification and SDS-PAGE analysis. The highly pure fractions of PPO protein variants were used for the enzyme assay.
Since protoporphyrinogen IX, a substrate of PPO protein, was not commercially available, it was chemically synthesized in the laboratory. Overall process was performed in dark under nitrogen stream. […] of protoporphyrin IX was dissolved in 20 ml of 20% (v/v) EtOH, and stirred under dark condition for 30 minutes. The obtained protoporphyrin IX solution was put into a 15 ml screw tube in an amount of 800 μl, and flushed with nitrogen gas for 5 minutes. To this, 1.5 g of sodium amalgam was added and vigorously shaken for 2 minutes. The lid was opened to exhaust hydrogen gas in the tube. Thereafter, the lid was closed and incubated for 3 minutes. The protoporphyrinogen IX solution was filtered using syringe and cellulose membrane filter. To 600 μl of the obtained protoporphyrinogen IX solution, approximately 300 μl of 2M MOPS [3-(N-morpholino) propanesulfonic acid] was added to adjust pH to 8.0. To determine the enzyme activity of PPO protein, a reaction mixture was prepared with the following composition (based on 10 ml): 50 mM Tris-Cl (pH 8.0); 50 mM NaCl; 0.04% (v/v) Tween 20; 40 mM glucose (0.072 g); 5 units glucose oxidase (16.6 mg); and 10 units catalase (1 μl).
Hundred and eighty microliters of a reaction mixture […] were placed in 96 well plates and 20 μl of purified PPO proteins were added. After 50 μl of the mineral oil was layered, the reaction was initiated by adding the substrate, protoporphyrinogen IX solution, to a final concentration of 50 μM. The reaction proceeded at room temperature for 30 min and the fluorescence of protoporphyrin IX was measured using Microplate reader (Sense, Hidex) (excitation: 405 nm; emission: 633 nm). To calculate the PPO enzyme activity, the protoporphyrinogen IX solution was kept open in the air overnight to oxidize the solution. To this, 2.7 N HCl was added, and the absorbance at 408 nm was measured. A standard curve was generated using standard protoporphyrin IX, and PPO activity was measured by calibration of protoporphyrin IX using the standard curve of protoporphyrin IX.
Activities of variants were presented relatively compared to that of wild type.

Molecule	Activity (%)
V164A: MxPPO (SEQ ID NO: 3) variant (protein, Synthetic (Protoporphyrinogen IX oxidase (MxPPO) of Myxococcus xanthus)) MHHMPRTTGMNVAVVGGGISGLAVAHHLRSRGTDAVLLESSARLGGAVGTHALAGYLVEQGPNSFLDREPATRALAAALNLEGRIRAADPAAKRRYVYTRGRLRSVPASPPAFLASDILPLGARLRVAGELFSRRAPEGVDESLAAFGRRHLGHRATQVLLDAAQTGIYAGDVEQLSVAATFPMLVKMEREHRSLILGAIRAQKAQRQAALPAGTAPKLSGALSTFDGGLQVLIDALAASLGDAAHVGARVEGLAREDGGWRLIIEEHGRRAELSVAQVVLAAPAHATAKLLRPLDDALAALVAGIAYAPIAVVHLGFDAGTLPAPDGFGFLVPAEEQRRMLGAIHASTTFPFRAEGGRVLYSCMVGGARQPGLVEQDEDALAALAREELKALAGVTARPSFTRVFRWPLGIPQYNLGHLERVAAIDAALQRLPGLHLIGNAYKGVGLNDCIRNAAQLADALVAGNTSHAP	75
A170C: MxPPO (SEQ ID NO: 3) variant (protein, Synthetic (Protoporphyrinogen IX oxidase (MxPPO) of Myxococcus xanthus)) MHHMPRTTGMNVAVVGGGISGLAVAHHLRSRGTDAVLLESSARLGGAVGTHALAGYLVEQGPNSFLDREPATRALAAALNLEGRIRAADPAAKRRYVYTRGRLRSVPASPPAFLASDILPLGARLRVAGELFSRRAPEGVDESLAAFGRRHLGHRATQVLLDAVQTGIYCGDVEQLSVAATFPMLVKMEREHRSLILGAIRAQKAQRQAALPAGTAPKLSGALSTFDGGLQVLIDALAASLGDAAHVGARVEGLAREDGGWRLIIEEHGRRAELSVAQVVLAAPAHATAKLLRPLDDALAALVAGIAYAPIAVVHLGFDAGTLPAPDGFGFLVPAEEQRRMLGAIHASTTFPFRAEGGRVLYSCMVGGARQPGLVEQDEDALAALAREELKALAGVTARPSFTRVFRWPLGIPQYNLGHLERVAAIDAALQRLPGLHLIGNAYKGVGLNDCIRNAAQLADALVAGNTSHAP	86
I345T: MxPPO (SEQ ID NO: 3) variant (protein, Synthetic (Protoporphyrinogen IX oxidase (MxPPO) of Myxococcus xanthus)) MHHMPRTTGMNVAVVGGGISGLAVAHHLRSRGTDAVLLESSARLGGAVGTHALAGYLVEQGPNSFLDREPATRALAAALNLEGRIRAADPAAKRRYVYTRGRLRSVPASPPAFLASDILPLGARLRVAGELFSRRAPEGVDESLAAFGRRHLGHRATQVLLDAVQTGIYAGDVEQLSVAATFPMLVKMEREHRSLILGAIRAQKAQRQAALPAGTAPKLSGALSTFDGGLQVLIDALAASLGDAAHVGARVEGLAREDGGWRLIIEEHGRRAELSVAQVVLAAPAHATAKLLRPLDDALAALVAGIAYAPIAVVHLGFDAGTLPAPDGFGFLVPAEEQRRMLGATHASTTFPFRAEGGRVLYSCMVGGARQPGLVEQDEDALAALAREELKALAGVTARPSFTRVFRWPLGIPQYNLGHLERVAAIDAALQRLPGLHLIGNAYKGVGLNDCIRNAAQLADALVAGNTSHAP	33
M365V: MxPPO (SEQ ID NO: 3) variant (protein, Synthetic (Protoporphyrinogen IX oxidase (MxPPO) of Myxococcus xanthus)) MHHMPRTTGMNVAVVGGGISGLAVAHHLRSRGTDAVLLESSARLGGAVGTHALAGYLVEQGPNSFLDREPATRALAAALNLEGRIRAADPAAKRRYVYTRGRLRSVPASPPAFLASDILPLGARLRVAGELFSRRAPEGVDESLAAFGRRHLGHRATQVLLDAVQTGIYAGDVEQLSVAATFPMLVKMEREHRSLILGAIRAQKAQRQAALPAGTAPKLSGALSTFDGGLQVLIDALAASLGDAAHVGARVEGLAREDGGWRLIIEEHGRRAELSVAQVVLAAPAHATAKLLRPLDDALAALVAGIAYAPIAVVHLGFDAGTLPAPDGFGFLVPAEEQRRMLGAIHASTTFPFRAEGGRVLYSCVVGGARQPGLVEQDEDALAALAREELKALAGVTARPSFTRVFRWPLGIPQYNLGHLERVAAIDAALQRLPGLHLIGNAYKGVGLNDCIRNAAQLADALVAGNTSHAP	77
F329V: MxPPO (SEQ ID NO: 3) variant (protein, Synthetic (Protoporphyrinogen IX oxidase (MxPPO) of Myxococcus xanthus)) MHHMPRTTGMNVAVVGGGISGLAVAHHLRSRGTDAVLLESSARLGGAVGTHALAGYLVEQGPNSFLDREPATRALAAALNLEGRIRAADPAAKRRYVYTRGRLRSVPASPPAFLASDILPLGARLRVAGELFSRRAPEGVDESLAAFGRRHLGHRATQVLLDAVQTGIYAGDVEQLSVAATFPMLVKMEREHRSLILGAIRAQKAQRQAALPAGTAPKLSGALSTFDGGLQVLIDALAASLGDAAHVGARVEGLAREDGGWRLIIEEHGRRAELSVAQVVLAAPAHATAKLLRPLDDALAALVAGIAYAPIAVVHLGFDAGTLPAPDGVGFLVPAEEQRRMLGAIHASTTFPFRAEGGRVLYSCMVGGARQPGLVEQDEDALAALAREELKALAGVTARPSFTRVFRWPLGIPQYNLGHLERVAAIDAALQRLPGLHLIGNAYKGVGLNDCIRNAAQLADALVAGNTSHAP	91
M365I: MxPPO (SEQ ID NO: 3) variant (protein, Synthetic (Protoporphyrinogen IX oxidase (MxPPO) of Myxococcus xanthus)) MHHMPRTTGMNVAVVGGGISGLAVAHHLRSRGTDAVLLESSARLGGAVGTHALAGYLVEQGPNSFLDREPATRALAAALNLEGRIRAADPAAKRRYVYTRGRLRSVPASPPAFLASDILPLGARLRVAGELFSRRAPEGVDESLAAFGRRHLGHRATQVLLDAVQTGIYAGDVEQLSVAATFPMLVKMEREHRSLILGAIRAQKAQRQAALPAGTAPKLSGALSTFDGGLQVLIDALAASLGDAAHVGARVEGLAREDGGWRLIIEEHGRRAELSVAQVVLAAPAHATAKLLRPLDDALAALVAGIAYAPIAVVHLGFDAGTLPAPDGFGFLVPAEEQRRMLGAIHASTTFPFRAEGGRVLYSCIVGGARQPGLVEQDEDALAALAREELKALAGVTARPSFTRVFRWPLGIPQYNLGHLERVAAIDAALQRLPGLHLIGNAYKGVGLNDCIRNAAQLADALVAGNTSHAP	82
I168C: MxPPO (SEQ ID NO: 3) variant (protein, Synthetic (Protoporphyrinogen IX oxidase (MxPPO) of Myxococcus xanthus)) MHHMPRTTGMNVAVVGGGISGLAVAHHLRSRGTDAVLLESSARLGGAVGTHALAGYLVEQGPNSFLDREPATRALAAALNLEGRIRAADPAAKRRYVYTRGRLRSVPASPPAFLASDILPLGARLRVAGELFSRRAPEGVDESLAAFGRRHLGHRATQVLLDAVQTGCYAGDVEQLSVAATFPMLVKMEREHRSLILGAIRAQKAQRQAALPAGTAPKLSGALSTFDGGLQVLIDALAASLGDAAHVGARVEGLAREDGGWRLIIEEHGRRAELSVAQVVLAAPAHATAKLLRPLDDALAALVAGIAYAPIAVVHLGFDAGTLPAPDGFGFLVPAEEQRRMLGAIHASTTFPFRAEGGRVLYSCMVGGARQPGLVEQDEDALAALAREELKALAGVTARPSFTRVFRWPLGIPQYNLGHLERVAAIDAALQRLPGLHLIGNAYKGVGLNDCIRNAAQLADALVAGNTSHAP	47
L332T: MxPPO (SEQ ID NO: 3) variant (protein, Synthetic (Protoporphyrinogen IX oxidase (MxPPO) of Myxococcus xanthus)) MHHMPRTTGMNVAVVGGGISGLAVAHHLRSRGTDAVLLESSARLGGAVGTHALAGYLVEQGPNSFLDREPATRALAAALNLEGRIRAADPAAKRRYVYTRGRLRSVPASPPAFLASDILPLGARLRVAGELFSRRAPEGVDESLAAFGRRHLGHRATQVLLDAVQTGIYAGDVEQLSVAATFPMLVKMEREHRSLILGAIRAQKAQRQAALPAGTAPKLSGALSTFDGGLQVLIDALAASLGDAAHVGARVEGLAREDGGWRLIIEEHGRRAELSVAQVVLAAPAHATAKLLRPLDDALAALVAGIAYAPIAVVHLGFDAGTLPAPDGFGFTVPAEEQRRMLGAIHASTTFPFRAEGGRVLYSCMVGGARQPGLVEQDEDALAALAREELKALAGVTARPSFTRVFRWPLGIPQYNLGHLERVAAIDAALQRLPGLHLIGNAYKGVGLNDCIRNAAQLADALVAGNTSHAP	87
